This note sets out measurements from US20210162028A1, “Methods for Inducing Intermittent Fasting and Modulating Autophagy” (The Hong Kong Polytechnic University, priority 2019, published 2021).

A short description of data set [1]: Half-life / therapeutic duration in circulation. Details: species or system mice. The settings on record: mouse, in vivo. An excerpt: As used herein, the term “half-life” or “½-life” refers to the time that would be required for the concentration of an agent, e.g., a fusion protein or arginine depleting agent as described herein, to fall by half in vitro or in vivo, for example, after injection into a mammal. In certain instances, the concentration of plasma arginine, after injection, is used herein as a proxy indicator of the half-life of the agent. In such instances, the term “therapeutic duration” is used to refer to the length of time a specified dosage of the arginine depleting agent is able to maintain the plasma concentration of arginine below a specified threshold concentration that a desired therapeutic effect is observed. In certain embodiments, the threshold concentration of plasma arginine is below 50 μM, below 40 μM, below 30 μM, below 20 μM, below 10 μM, below 5 μM, below 3 μM, or at a concentration below the detection limit of conventional analytical instrumentation.
Importantly, the present invention used a new ABD fusion approach to join an ABD and an arginase together so that arginase activity can be retained. Stable and soluble arginase-ABD fusion molecules that can bind to FcRn in a pH-dependent manner were successfully generated, allowing for efficient endosomal recycling. […] Taken together, a variety of different approaches are available for fine-tuning the pharmacokinetic properties of arginases, ensuring appropriate residence time in circulation for different disease conditions. Another key issue in the development of any therapeutic protein is to minimize immunogenicity to avoid adverse effects. Thus, the observed low immunogenicity of human arginase and the successful deimmunization of ABD (e.g. ABD094), which was also used in the present disclosure as gene fusion partner to extend the in vivo half-life, are important.

Data set [2] is described as follows: Bodyweight of treated mice. The class given is in vivo, mouse.
The nature of data set [3]: Daily food intake / 7-day intermittent fasting cycle in mice. The class given is in vivo, mouse. The source says:
One of the most noticeable effects of intermittent fasting is reduction of bodyweight. […] Specifically, C57BL/6J, which is the most commonly used mouse strain for polygenic obesity model, was used in the study. It is well-reported that C57BL/6J male mice feeding on a high-fat diet will have prominent weight gain, become obese and develop hyperinsulinemia, hyperglycemia, impaired glucose tolerance and insulin resistance [Gallou-Kabani et al., 2007, Obesity 15(8):1996-2005]. Obesity was induced in C57BL/6J male mice via feeding ad libitum a high-fat diet containing 60 kcal % fat (HFD; Research Diets, D12492) for 12-14 weeks starting from 5-week old. These mice are referred as diet-induced obese (DIO) mice. DIO mice were stratified according to bodyweight into 2 groups. […] Both groups of mice continued to feed ad libitum on the HFD throughout the treatment period. One group of age-matched C57BL/6J male mice feeding ad libitum on an ordinary rodent chow diet (CD; LabDiet, 50IF/6F) and injected with vehicle served as the lean control [CD (vehicle) group]. Food intake and bodyweight of mice were measured daily. […] DIO mice were injected with rhArg on Day 0, which was Day 7 of the previous cycle. Similarly, Day 7 of the cycle shown in FIG. 1B was Day 0 of the next cycle. […] Bodyweight gain is one of the biomarkers related to aging.
C57BL/6J male mice were fed a high-fat diet from 5-week old for 12 weeks. They were then stratified into 3 groups according to their bodyweight and individually caged: (i) one group of mice received i.p. injection of 600 U N-ABD094-rhArg (SEQ ID NO: 50) once a week [HFD (rhArg) group] and was fed ad libitum the HFD for 5 weeks; (ii) one group of mice received i.p. injection of saline once a week, and was fed a predetermined amount of HFD on each day to artificially create a 7-day intermittent fasting cycle that mimics the pattern of food intake of mice administered once a week with rhArg [HFD (artificial IF) group)]; (iii) one group of mice was injected with saline once a week and was fed ad libitum the HFD [HFD (vehicle) group].

Data set [4] in a line: Insulin tolerance test (ITT). In kind it is in vivo, mouse. The settings on record: DIO C57BL/6J male mice on HFD; about 250 U once a week; at 7 week. The source says:
In terms of reversing insulin resistance on pre-existing obese mice, insulin tolerance test (ITT) was employed (FIG. 59).
In terms of reversing insulin resistance on pre-existing obese mice, insulin tolerance test (ITT) was employed (FIG. 68A).

Data set [5] can be described thus: Fat pad and organ mass at end of treatment. In kind it is in vivo, mouse. The settings on record: DIO C57BL/6J male mice on HFD; about 250 U once a week, 8 weeks.
Data set [6] can be described thus: Glucose tolerance test (GTT). In kind it is in vivo, mouse. The settings on record: DIO C57BL/6J male mice on HFD; about 250 U once a week; at 6 week.
Where [7] appears, read: DIO C57BL/6J male mouse on HFD, 50 U i.p. once a week, 2 weeks, n=1.
The mark [8] stands for this setting: DIO C57BL/6J male mice on HFD, about 250 U i.p. once a week, 8 weeks.

B1: BAH: arginase-ABD fusion protein, SEQ ID NO: 76 (protein)
chain: MKPISIIGVPMDLGQTRRGPDMGPSAMRYAGVIERLERLHYDIEDLGDIPIGKAERLHEQGDSRLRNLKAVAEANEKLAAAVDQVVQRGRFPLVLGGDHSIAIGTLAGVAKHYERLGVIWYDAHGDVNTAETSPSGNIHGMPLAASLGFGHPALTQIGGYCPKIKPEHVVLIGVRSLDEGEKKFIREKGIKIYTMHEVDRLGMTRVMEETIAYLKERTDGVHLSLDLDGLDPSDAPGVGTPVIGGLTYRESHLAMEMLAEAQIITSAEFVEVNPILDERNKTASVAVALMGSLFGEKLMAQHDEAVDANSLAEAKVLANRELDKYGVSDYYKNLINNAKTVEGVKALIDEILAALPHHHHHH
modifications: BAH Fusion Protein, Synthesized in the Lab
For the molecule B1, the “Therapeutic duration (and half-life)” value in data set [1] is given as “surprisingly high therapeutic duration (and half-life)”.

B2: BHA: arginase-ABD fusion protein, SEQ ID NO: 75 (protein)
chain: MKPISIIGVPMDLGQTRRGPDMGPSAMRYAGVIERLERLHYDIEDLGDIPIGKAERLHEQGDSRLRNLKAVAEANEKLAAAVDQVVQRGRFPLVLGGDHSIAIGTLAGVAKHYERLGVIWYDAHGDVNTAETSPSGNIHGMPLAASLGFGHPALTQIGGYCPKIKPEHVVLIGVRSLDEGEKKFIREKGIKIYTMHEVDRLGMTRVMEETIAYLKERTDGVHLSLDLDGLDPSDAPGVGTPVIGGLTYRESHLAMEMLAEAQIITSAEFVEVNPILDERNKTASVAVALMGSLFGEKLMHHHHHHAQHDEAVDANSLAEAKVLANRELDKYGVSDYYKNLINNAKTVEGVKALIDEILAALP
modifications: BHA Fusion Protein, Synthesized in the Lab
With B2, the “Therapeutic duration (and half-life)” value in data set [1] is on record as “surprisingly high therapeutic duration (and half-life)”.

B3: ADI-ABD: arginine deiminase fused with albumin binding domain (SEQ ID NO: 107) (protein)
chain: MHHHHHHDEAVDANSLAEAKVLANRELDKYGVSDYYKNLINNAKTVEGVKALIDEILAALPSGSNNNNNNGSGGSVFDSKFKGIHVYSEIGELESVLVHEPGREIDYITPARLDELLFSAILESHDARKEHKQFVAELKANDINVVELIDLVAETYDLASQEAKDKLIEEFLEDSEPVLSEEHKVVVRNFLKAKKTSRELVEIMMAGITKYDLGIEADHELIVDPMPNLYFTRDPFASVGNGVTIHYMRYKVRQRETLFSRFVFSNHPKLINTPWYYDPSLKLSIEGGDVFIYNNDTLVVGVSERTDLQTVTLLAKNIVANKECEFKRIVAINVPKWTNLMHLDTWLTMLDKDKFLYSPIANDVFKFWDYDLVNGGAEPQPVENGLPLEGLLQSIINKKPVLIPIAGEGASQMEIERETHFDGTNYLAIRPGVVIGYSRNEKTNAALEAAGIKVLPFHGNQLSLGMGNARCMSMPLSRKDVKW
modifications: ADI-ABD, Synthesized in the Lab
For B3, the “Bodyweight reached under treatment” value in data set [2] (DIO C57BL/6J male mouse on HFD, 5 U i.p., first cycle, from 47 g in 2 days, n=1) is on record as “about 44 g”. The “Time of minimum level of food intake in the cycle” value in data set [3] (DIO C57BL/6J male mice on HFD, i.p. once a week) is recorded as “after the first day”. In addition, the “Pattern of food intake (intermittent fasting cycle)” value in data set [3] (DIO C57BL/6J male mouse on HFD, 5 U i.p. once a week, 2 weeks, n=1) is given as “induce a 7-day intermittent fasting cycle”.

B4: N-ABD094-rhArg-Co^2+: SEQ ID NO: 50 (cobalt substituted); Mn^2+ substituted with Co^2+ in the ABD-rhArg fusion protein (protein)
chain: MHHHHHHDEAVDANSLAEAKEAANAELDSYGVSDFYKRLIDKAKTVEGVEALKDAILAALPSGSNNNNNNGSGGMSAKSRTIGIIGAPFSKGQPRGGVEEGPTVLRKAGLLEKLKEQECDVKDYGDLPFADIPNDSPFQIVKNPRSVGKASEQLAGKVAEVKKNGRISLVLGGDHSLAIGSISGHARVHPDLGVIWVDAHTDINTPLTTTSGNLHGQPVSFLLKELKGKIPDVPGFSWVTPCISAKDIVYIGLRDVDPGEHYILKTLGIKYFSMTEVDRLGIGKVMEETLSYLLGRKKRPIHLSFDVDGLDPSFTPATGTPVVGGLTYREGLYITEEIYKTGLLSGLDIMEVNPSLGKTPEEVTRTVNTAVAITLACFGLAREGNHKPIDYLNPPK
modifications: Co2+ substituted for Mn2+; N-ABD094-rhArg, Synthesized in the Lab
notes: Mn^2+ substituted with Co^2+ in the ABD-rhArg fusion protein
Turning to B4, in data set [2] (DIO C57BL/6J male mouse on HFD, 50 U i.p. once a week, from 45 g within 2 weeks, n=1), the “Bodyweight reached under treatment” value is on record as 32 g. In addition, in data set [3] (setting [7]), the “Length of fasting period in the 7-day intermittent fasting cycle” value is recorded as 4 days and the “Pattern of food intake (intermittent fasting cycle)” value is listed as “induce a 7-day intermittent fasting cycle”.

B5: PEGylated His-rhArg: PEGylated His-tagged recombinant human arginase (SEQ ID NO: 101) (protein)
chain: MHHHHHHMSAKSRTIGIIGAPFSKGQPRGGVEEGPTVLRKAGLLEKLKEQECDVKDYGDLPFADIPNDSPFQIVKNPRSVGKASEQLAGKVAEVKKNGRISLVLGGDHSLAIGSISGHARVHPDLGVIWVDAHTDINTPLTTTSGNLHGQPVSFLLKELKGKIPDVPGFSWVTPCISAKDIVYIGLRDVDPGEHYILKTLGIKYFSMTEVDRLGIGKVMEETLSYLLGRKKRPIHLSFDVDGLDPSFTPATGTPVVGGLTYREGLYITEEIYKTGLLSGLDIMEVNPSLGKTPEEVTRTVNTAVAITLACFGLAREGNHKPIDYLNPPK
modifications: PEGylated; His-rhArg, Synthesized in Lab
In the case of B5, the “Bodyweight reached under treatment” value in data set [2] (DIO C57BL/6J male mice on HFD, about 250 U i.p. once a week, from 50 g within 8 weeks) is given as 30 g. Besides, the “Insulin sensitivity in ITT” value in data set [4] is recorded as “marked increase in insulin sensitivity”. In data set [5], the “Fat pad mass (perirenal, inguinal WAT, interscapular BAT) and liver mass” value is “dramatically reduced to a weight similar to that of the vehicle-treated lean control mice”; the “Kidney and heart mass” value is given as “significantly reduced”. Moreover, in data set [3] (setting [8]), the “Pattern of food intake (intermittent fasting cycles)” value is “repetitive 7-day intermittent fasting cycles” and the “Total food intake per week, less than HFD (vehicle) group” value is recorded as “about 28%”. For the same molecule, in data set [6], the “Glucose tolerance in GTT” value is “significantly improved glucose tolerance”.
